This is an account of results in the supplement of paper PMC5998384.

The data set deals with HeLa Kyoto. As to the kind of experiment: melting temperature (median over replicates), in situ; higher = more thermally stable.
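Also: HeLa Kyoto cells synchronized by double thymidine or nocodazole block, proteins quantified by TMT10plex mass spectrometry, three independent biological replicates.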

Where the note is “cell cycle stage: mitosis”, “MASRWWRWRRGCSWKPAARSPGPGSPGRAGPLGPSAAAEVRAQVHRRKGLDLSQIPYINLVKHLTSACPNVCRISRFHHTTPDSKTHSGEKYTDPFKLGWRDLKGLYEDIRKELLISTSELKEMSEYYFDGKGKAFRPIIVALMARACNIHHNNSRHVQASQRAIALIAEMIHTASLVHDDVIDDASSRRGKHTVNKIWGEKKAVLAGDLILSAASIALARIGNTTVISILTQVIEDLVRGEFLQLGSKENENERFAHYLEKTFKKTASLIANSCKAVSVLGCPDPVVHEIAYQYGKNVGIAFQLIDDVLDFTSCSDQMGKPTSADLKLGLATGPVLFACQQFPEMNAMIMRRFSLPGDVDRARQYVLQSDGVQQTTYLAQQYCHEAIREISKLRPSPERDALIQLSEIVLTRDK [PDSS1]” returned a melting temperature of 51.7 °C. In the case of “MFSLPLNCSPDHIRRGSCWGRPQDLKIAAPAWNSKCHPGAGAAMARQHARTLWYDRPRYVFMEFCVEDSTDVHVLIEDHRIVFSCKNADGVELYNEIEFYAKVNSKPVWLSVDFDNWRDWEGDEEMELAHVEHYAELLKKVSTKRPPPAMDDLDDDSDSADDATSN [PTGES3L]”, the melting temperature reads like this: (cell cycle stage: G1/S) 49.8 °C; (cell cycle stage: mitosis) 49.9 °C. “MEEKQILCVGLVVLDVISLVDKYPKEDSEIRCLSQRWQRGGNASNSCTVLSLLGAPCAFMGSMAPGHVADFLVADFRRRGVDVSQVAWQSKGDTPSSCCIINNSNGNRTIVLHDTSLPDVSATDFEKVDLTQFKWIHIEGRNASEQVKMLQRIDAHNTRQPPEQKIRVSVEVEKPREELFQLFGYGDVVFVSKDVAKHLGFQSAEEALRGLYGRVRKGAVLVCAWAEEGADALGPDGKLLHSDAFPPPRVVDTLGAGDTFNASVIFSLSQGRSVQEALRFGCQVAGKKCGLQGFDGIV [KHK]”: the melting temperature (cell cycle stage: G1/S) worked out at 54.2 °C.

In the case of “MAEEMESSLEASFSSSGAVSGASGFLPPARSRIFKIIVIGDSNVGKTCLTYRFCAGRFPDRTEATIGVDFRERAVEIDGERIKIQLWDTAGQERFRKSMVQHYYRNVHAVVFVYDMTNMASFHSLPSWIEECKQHLLANDIPRILVGNKCDLRSAIQVPTDLAQKFADTHSMPLFETSAKNPNDNDHVEAIFMTLAHKLKSHKPLMLSQPPDNGIILKPEPKPAMTCWC [RAB33B]”, the melting temperature worked out at 54.3 °C (cell cycle stage: G1/S) and 55 °C (cell cycle stage: mitosis). In turn, “MWSRLVWLGLRAPLGGRQGFTSKADPQGSGRITAAVIEHLERLALVDFGSREAVARLEKAIAFADRLRAVDTDGVEPMESVLEDRCLYLRSDNVVEGNCADELLQNSHRVVEEYFVAPPGNISLPKLDEQEPFPHS [GATC]” gave a melting temperature (cell cycle stage: G1/S) of 51.7 °C. In the case of “MQFMLLFSRQGKLRLQKWYVPLSDKEKKKITRELVQTVLARKPKMCSFLEWRDLKIVYKRYASLYFCCAIEDQDNELITLEIIHRYVELLDKYFGSVCELDIIFNFEKAYFILDEFLLGGEVQETSKKNVLKAIEQADLLQEEAETPRSVLEEIGLT [AP1S2]”, the melting temperature (cell cycle stage: mitosis) worked out at 49.7 °C. For the sequence “MNILPKKSWHVRNKDNVARVRRDEAQAREEEKERERRVLLAQQEARTEFLRKKARHQNSLPELEAAEAGAPGSGPVDLFRELLEEGKGVIRGNKEYKEEKRQEKERQEKALGILTYLGQSAAEAQTQPPWYQLPPGRGGPPPGPAPDEKIKSRLDPLREMQKHLGKKRQHGGDEGSRSRKEKEGSEKQRPKEPPSLDQLRAERLRREAAERSRAEALLARVQGRALQEGQPEEDETDDRRRRYNSQFNPQLARRPRQQDPHLTH [LENG1]”, the melting temperature (cell cycle stage: mitosis) came out at 52.5 °C.

Take “MIEAEEQQPCKTDFYSELPKVELHAHLNGSISSHTMKKLIAQKPDLKIHDQMTVIDKGKKRTLEECFQMFQTIHQLTSSPEDILMVTKDVIKEFADDGVKYLELRSTPRRENATGMTKKTYVESILEGIKQSKQENLDIDVRYLIAVDRRGGPLVAKETVKLAEEFFLSTEGTVLGLDLSGDPTVGQAKDFLEPLLEAKKAGLKLALHLSEIPNQKKETQILLDLLPDRIGHGTFLNSGEGGSLDLVDFVRQHRIPLELCLTSNVKSQTVPSYDQHHFGFWYSIAHPSVICTDDKGVFATHLSQEYQLAAETFNLTQSQVWDLSYESINYIFASDSTRSELRKKWNHLKPRVLHI [ADAL]”: the melting temperature is, setting by setting: (cell cycle stage: G1/S) 57.1 °C; (cell cycle stage: mitosis) 57.2 °C. In the case of “MGDMANSSIEFHPKPQQQRDVPQAGGFGCTLAELRTLMELRGAEALQKIEEAYGDVSGLCRRLKTSPTEGLADNTNDLEKRRQIYGQNFIPPKQPKTFLQLVWEALQDVTLIILEVAAIVSLGLSFYAPPGEESEACGNVSGGAEDEGEAEAGWIEGAAILLSVICVVLVTAFNDWSKEKQFRGLQSRIEQEQKFTVIRNGQLLQVPVAALVVGDIAQVKYGDLLPADGVLIQANDLKIDESSLTGESDHVRKSADKDPMLLSGTHVMEGSGRMVVTAVGVNSQTGIIFTLLGAGGEEEEKKDKKGKQQDGAMESSQTKAKKQDGAVAMEMQPLKSAEGGEMEEREKKKANAPKKEKSVLQGKLTKLAVQIGKAGLVMSAITVIILVLYFVIETFVVEGRTWLAECTPVYVQYFVKFFIIGVTVLVVAVPEGLPLAVTISLAYSVKKMMKDNNLVRHLDACETMGNATAICSDKTGTLTTNRMTVVQSYLGDTHYKEIPAPSALTPKILDLLVHAISINSAYTTKILPPEKEGALPRQVGNKTECALLGFVLDLKRDFQPVREQIPEDKLYKVYTFNSVRKSMSTVIRMPDGGFRLFSKGASEILLKKCTNILNSNGELRGFRPRDRDDMVRKIIEPMACDGLRTICIAYRDFSAGQEPDWDNENEVVGDLTCIAVVGIEDPVRPEVPEAIRKCQRAGITVRMVTGDNINTARAIAAKCGIIQPGEDFLCLEGKEFNRRIRNEKGEIEQERLDKVWPKLRVLARSSPTDKHTLVKGIIDSTTGEQRQVVAVTGDGTNDGPALKKADVGFAMGIAGTDVAKEASDIILTDDNFTSIVKAVMWGRNVYDSISKFLQFQLTVNVVAVIVAFTGACITQDSPLKAVQMLWVNLIMDTFASLALATEPPTESLLLRKPYGRDKPLISRTMMKNILGHAVYQLAIIFTLLFVGELFFDIDSGRNAPLHSPPSEHYTIIFNTFVMMQLFNEINARKIHGERNVFDGIFSNPIFCTIVLGTFGIQIVIVQFGGKPFSCSPLSTEQWLWCLFVGVGELVWGQVIATIPTSQLKCLKEAGHGPGKDEMTDEELAEGEEEIDHAERELRRGQILWFRGLNRIQTQIRVVKAFRSSLYEGLEKPESKTSIHNFMATPEFLINDYTHNIPLIDDTDVDENEERLRAPPPPSPNQNNNAIDSGIYLTTHVTKSATSSVFSSSPGSPLHSVETSL [ATP2B3]”, the melting temperature (cell cycle stage: G1/S) came to 54.2 °C.

Regarding “MLQQDSNDDTEDVSLFDAEEETTNRPRKAKIRHPVASFFHLFFRVSAIIVCLLCELLSSSFITCMVTIILLLSCDFWAVKNVTGRLMVGLRWWNHIDEDGKSHWVFESRKESSQENKTVSEAESRIFWLGLIACSVLWVIFAFSALFSFTVKWLRRSRHIAQTGLKVLGSRDPPASAFQSAGITGVSRCPGHPSRKFHQVDINSFTRITDRALYWKPAPRLSSPPLRAAPGNCQQMAPARLFLSLRLWAWRGGGESPNSRGTGEPGPKFHLASGMH [TVP23C]”, for the setting “cell cycle stage: mitosis”, the melting temperature was found to be 56 °C. Where the note is “cell cycle stage: mitosis”, “MEALLLGAGLLLGAYVLVYYNLVKAPPCGGMGNLRGRTAVVTGANSGIGKMTALELARRGARVVLACRSQERGEAAAFDLRQESGNNEVIFMALDLASLASVRAFATAFLSSEPRLDILIHNAGISSCGRTREAFNLLLRVNHIGPFLLTHLLLPCLKACAPSRVVVVASAAHCRGRLDFKRLDRPVVGWRQELRAYADTKLANVLFARELANQLEATGVTCYAAHPGPVNSELFLRHVPGWLRPLLRPLAWLVLRAPRGGAQTPLYCALQEGIEPLSGRYFANCHVEEVPPAARDDRAAHRLWEASKRLAGLGPGEDAEPDEDPQSEDSEAPSSLSTPHPEEPTVSQPYPSPQSSPDLSKMTHRIQAKVEPEIQLS [DHRS13]” returned a melting temperature of 50 °C.

Where the note is “cell cycle stage: G1/S”, “MPFRLLIPLGLLCALLPQHHGAPGPDGSAPDPAHYRERVKAMFYHAYDSYLENAFPFDELRPLTCDGHDTWGSFSLTLIDALDTLLILGNVSEFQRVVEVLQDSVDFDIDVNASVFETNIRVVGGLLSAHLLSKKAGVEVEAGWPCSGPLLRMAEEAARKLLPAFQTPTGMPYGTVNLLHGVNPGETPVTCTAGIGTFIVEFATLSSLTGDPVFEDVARVALMRLWESRSDIGLVGNHIDVLTGKWVAQDAGIGAGVDSYFEYLVKGAILLQDKKLMAMFLEYNKAIRNYTRFDDWYLWVQMYKGTVSMPVFQSLEAYWPGLQSLIGDIDNAMRTFLNYYTVWKQFGGLPEFYNIPQGYTVEKREGYPLRPELIESAMYLYRATGDPTLLELGRDAVESIEKISKVECGFATIKDLRDHKLDNRMESFFLAETVKYLYLLFDPTNFIHNNGSTFDAVITPYGECILGAGGYIFNTEAHPIDPAALHCCQRLKEEQWEVEDLMREFYSLKRSRSKFQKNTVSSGPWEPPARPGTLFSPENHDQARERKPAKQKVPLLSCPSQPFTSKLALLGQVFLDSS [EDEM2]” showed a melting temperature of 55.3 °C.

With “MGKEKTHINIVVIGHVDSGKSTTTGHLIYKCGGIDKRTIEKFEKEAAEMGKGSFKYAWVLDKLKAERERGITIDISLWKFETSKYYVTIIDAPGHRDFIKNMITGTSQADCAVLIVAAGVGEFEAGISKNGQTREHALLAYTLGVKQLIVGVNKMDSTEPPYSQKRYEEIVKEVSTYIKKIGYNPDTVAFVPISGWNGDNMLEPSANMPWFKGWKVTRKDGNASGTTLLEALDCILPPTRPTDKPLRLPLQDVYKIGGIGTVPVGRVETGVLKPGMVVTFAPVNVTTEVKSVEMHHEALSEALPGDNVGFNVKNVSVKDVRRGNVAGDSKNDPPMEAAGFTAQVIILNHPGQISAGYAPVLDCHTAHIACKFAELKEKIDRRSGKKLEDGPKFLKSGDAAIVDMVPGKPMCVESFSDYPPLGRFAVRDMRQTVAVGVIKAVDKKAAGAGKVTKSAQKAQKAK [EEF1A1]”, the melting temperature was 52.4 °C (cell cycle stage: G1/S) and 52.4 °C (cell cycle stage: mitosis).

With “MRWRTILLQYCFLLITCLLTALEAVPIDIDKTKVQNIHPVESAKIEPPDTGLYYDEYLKQVIDVLETDKHFREKLQKADIEEIKSGRLSKELDLVSHHVRTKLDELKRQEVGRLRMLIKAKLDSLQDIGMDHQALLKQFDHLNHLNPDKFESTDLDMLIKAATSDLEHYDKTRHEEFKKYEMMKEHERREYLKTLNEEKRKEEESKFEEMKKKHENHPKVNHPGSKDQLKEVWEETDGLDPNDFDPKTFFKLHDVNSDGFLDEQELEALFTKELEKVYDPKNEEDDMVEMEEERLRMREHVMNEVDTNKDRLVTLEEFLKATEKKEFLEPDSWETLDQQQFFTEEELKEYENIIALQENELKKKADELQKQKEELQRQHDQLEAQKLEYHQVIQQMEQKKLQQGIPPSGPAGELKFEPHI [NUCB2]”, the melting temperature worked out at 55.5 °C (cell cycle stage: G1/S) and 56.9 °C (cell cycle stage: mitosis). The corresponding values for “MAEEEGPPVELRQRKKPKSSENKESAKEEKISDIPIPERAPKHVLFQRFAKIFIGCLAAVTSGMMYALYLSAYHERKFWFSNRQELEREITFQGDSAIYYSYYKDMLKAPSFERGVYELTHNNKTVSLKTINAVQQMSLYPELIASILYQATGSNEIIEPVYFYIGIVFGLQGIYVTALFVTSWLMSGTWLAGMLTVAWFVINRVDTTRIEYSIPLRENWALPYFACQIAALTGYLKSNLNTYGERFCYLLMSASTYTFMMMWEYSHYLLFLQAISLFLLDTFSVEQSDKVYEVYKIYIFSLFLGYLLQFENPALLVSPLLSLVAALMLAKCLQLNVKKGSFVAKIIKVINFYLVCTLTITLNIIMKMFVPHKENGHMLKFLEVKFGLNMTKNFTMNWLLCQESLQAPSQDFFLRLTQSSLLPFYILVLIICFLSMLQVIFRRINGKSLKETVTLEDGRIGERPEIIYHVIHTILLGSLAMVIEGLKYIWIPYVCMLAAFGVCSPELWMTLFKWLRLRTVHPILLALILSMAVPTIIGLSLWKEFFPRLMTELMELQEFYDPDTVELMTWIKRQAPVAAVFAGSPQLMGAIKLCTGWMVTSLPLYNDDDLLKRNENIYQIYSKRSAEDIYKILTSYKANYLIVEDAICNEVGPMRGCRVKDLLDIANGHMVCEEGDKLTYSKYGRFCHEVKINYSPYVNYFTRVYWNRSYFVYKINTVISFQS [DPY19L4]” are 54.5 °C and 56.9 °C.
